Measured values: publication PMC3438448

Assays:
[1] = biological target: microtubules (taxol-stabilized, α/β-tubulin) (UniProt P02554)
axonemal microtubules = experiment: single-molecule microtubule release assay (TIRF); as a6, perfused with 5 mM ATP in the presence of 800 nM Lis1; durations of attachment fitted by a one-phase exponential decay

Chain of microtubules (taxol-stabilized, α/β-tubulin) (chain, as listed by the source, chain 1 of 2): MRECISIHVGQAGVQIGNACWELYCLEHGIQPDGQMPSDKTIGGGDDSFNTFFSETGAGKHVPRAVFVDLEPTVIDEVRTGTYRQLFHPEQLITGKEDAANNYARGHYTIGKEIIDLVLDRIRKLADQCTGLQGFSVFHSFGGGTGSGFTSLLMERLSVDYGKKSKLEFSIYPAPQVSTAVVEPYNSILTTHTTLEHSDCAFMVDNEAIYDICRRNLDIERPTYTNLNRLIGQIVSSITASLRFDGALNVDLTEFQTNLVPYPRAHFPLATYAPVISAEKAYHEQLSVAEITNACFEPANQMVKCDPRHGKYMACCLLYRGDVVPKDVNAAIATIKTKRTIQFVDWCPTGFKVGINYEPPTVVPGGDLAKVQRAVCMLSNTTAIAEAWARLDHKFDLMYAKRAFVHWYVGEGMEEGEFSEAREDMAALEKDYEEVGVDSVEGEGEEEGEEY
Chain of microtubules (taxol-stabilized, α/β-tubulin) (P02554 whole entry, chain 2 of 2, the tested form may be a part): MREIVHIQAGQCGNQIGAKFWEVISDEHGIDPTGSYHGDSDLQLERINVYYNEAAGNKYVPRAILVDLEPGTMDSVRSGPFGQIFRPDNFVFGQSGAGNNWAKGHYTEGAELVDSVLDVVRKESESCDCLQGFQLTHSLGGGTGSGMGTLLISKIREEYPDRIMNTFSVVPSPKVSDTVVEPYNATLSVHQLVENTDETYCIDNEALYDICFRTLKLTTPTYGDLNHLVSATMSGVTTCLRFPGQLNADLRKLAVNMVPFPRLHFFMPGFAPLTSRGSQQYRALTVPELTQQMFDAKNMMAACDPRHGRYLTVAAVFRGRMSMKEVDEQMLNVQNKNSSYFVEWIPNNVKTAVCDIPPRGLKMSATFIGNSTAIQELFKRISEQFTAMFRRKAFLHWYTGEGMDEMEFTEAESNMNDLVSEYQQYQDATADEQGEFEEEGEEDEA

| Km(MT) of the microtubule-stimulated ATPase activity, with 140 nM Lis1 [1] | Km(MT) of the microtubule-stimulated ATPase activity, without Lis1 [1] | off-rate (decay constant) of microtubule attachments after ATP addition, with 800 nM Lis1 and 5 mM ATP (axonemal microtubules) | off-rate (decay constant) of rebinding events, with Lis1 and ATP (axonemal microtubules) | Substance |
| --- | --- | --- | --- | --- |
| 0.2 µM | 0.09 µM | – | – | GST-dynein_(331 kDa), P36022 1-4092 |
| – | – | 0.162 s⁻¹ | 0.23 s⁻¹ | monomeric dynein_(331 kDa) (domain or fragment) |
